US20240390512A1, “METHODS OF TREATING CHEMOTHERAPY-RESISTANT CANCER WITH AN ANTIBODY-DRUG CONJUGATE” (DAIICHI SANKYO COMPANY, LIMITED, priority 2021, published 2024)
Changes are numbered by the printed parent chain.

T1: human CDH6 (full-length and EC domain deletion mutants) (Homo sapiens, UniProt P55285, DEL384-486)
T1 construct: each one of the five EC domains could be deleted from full-length human CDH6; 3xFLAG (deletion mutants only, from the vector p3×FLAG-CMV-9); expressed in transfected cells; host or cells: 293α cells
T1 sequence (P55285 with tags, fused parts or gaps DEL384-486): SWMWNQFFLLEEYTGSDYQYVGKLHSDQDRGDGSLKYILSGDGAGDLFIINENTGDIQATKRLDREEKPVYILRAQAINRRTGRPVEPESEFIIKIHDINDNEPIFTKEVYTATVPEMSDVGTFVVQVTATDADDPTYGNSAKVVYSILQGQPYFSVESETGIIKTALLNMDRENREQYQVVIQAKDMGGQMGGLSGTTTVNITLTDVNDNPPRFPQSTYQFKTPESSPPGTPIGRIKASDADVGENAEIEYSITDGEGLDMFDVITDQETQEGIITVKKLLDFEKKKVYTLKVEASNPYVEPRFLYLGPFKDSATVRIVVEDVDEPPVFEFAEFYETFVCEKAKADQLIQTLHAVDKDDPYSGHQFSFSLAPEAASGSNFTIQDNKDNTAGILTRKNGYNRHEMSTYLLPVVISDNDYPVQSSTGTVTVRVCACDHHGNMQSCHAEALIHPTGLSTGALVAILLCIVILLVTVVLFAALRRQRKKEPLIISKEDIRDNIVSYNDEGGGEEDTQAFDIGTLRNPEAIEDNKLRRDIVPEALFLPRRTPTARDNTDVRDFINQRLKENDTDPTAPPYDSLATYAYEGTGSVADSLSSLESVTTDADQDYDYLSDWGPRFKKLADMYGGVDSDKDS

T2: human CDH6 (full-length and EC domain deletion mutants) (Homo sapiens, UniProt P55285, DEL160-268)
T2 construct: each one of the five EC domains could be deleted from full-length human CDH6; 3xFLAG (deletion mutants only, from the vector p3×FLAG-CMV-9); expressed in transfected cells; host or cells: 293α cells
T2 sequence (P55285 with tags, fused parts or gaps DEL160-268): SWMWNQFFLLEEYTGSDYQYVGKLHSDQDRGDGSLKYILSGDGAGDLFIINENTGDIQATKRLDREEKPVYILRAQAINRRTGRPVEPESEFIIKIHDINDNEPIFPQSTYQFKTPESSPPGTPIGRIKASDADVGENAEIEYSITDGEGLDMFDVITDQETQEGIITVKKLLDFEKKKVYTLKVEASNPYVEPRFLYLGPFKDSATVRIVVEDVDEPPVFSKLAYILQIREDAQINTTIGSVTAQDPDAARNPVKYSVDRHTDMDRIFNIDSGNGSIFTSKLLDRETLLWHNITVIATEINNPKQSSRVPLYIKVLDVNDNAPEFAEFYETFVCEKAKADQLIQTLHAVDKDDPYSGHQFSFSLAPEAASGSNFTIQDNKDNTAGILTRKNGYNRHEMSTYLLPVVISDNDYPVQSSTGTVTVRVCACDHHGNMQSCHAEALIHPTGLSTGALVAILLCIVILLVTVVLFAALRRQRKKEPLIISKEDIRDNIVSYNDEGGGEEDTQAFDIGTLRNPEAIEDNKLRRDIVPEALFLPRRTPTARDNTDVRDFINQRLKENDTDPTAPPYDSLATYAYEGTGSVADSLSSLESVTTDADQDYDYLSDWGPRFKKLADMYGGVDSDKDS

B1: rG056: rat anti-human CDH6 monoclonal antibody produced by hybridoma rG056; variable regions SEQ ID NO: 30 and 35 (antibody, listed as Rattus norvegicus, V domains shown)
VL: DVQMTQSPSSLAASPGESVSISCRATKSIGIYLAWYQQKPGKTFKLLIYSGSTLQSGTPSRFSGSGSGTDFTLTIRSLEPEDFGLYFCQQFYENPFTFGSGTKLEIRRA
VH: EVQLQESGPGLVKPSQSLSLTCSVTDYSITTYFWGWIRKFPGNKMEWMGYMSYRGGTSYNPSLKSRISITRDTSKNQFFLQLNSVTTEDTATYYCARCPNYGGHSLVFDYWGQGVMVTVSS
B2: rG019: rat anti-human CDH6 monoclonal antibody produced by hybridoma rG019; variable regions SEQ ID NO: 10 and 15 (antibody, listed as Rattus norvegicus, V domains shown)
VL: DIQMTQSPSLLSASVGDRVTLNCKASQNIYKNLAWYQQKLGEGPKLLIYDANTLQTGIPSRFSGSGSGSDFTLTISSLQPEDVATYFCQQYYSGWAFGGVTNLELKRA
VH: QVQLQQSGAELVKPGSSVKISCKASGYTFTRNFMHWIKQQPGNGLEWIGWIYCGDGETEYNQKFNGKATLTADRSSSTAYMELSRLTSEDSAVYFCARGVYGGFAGGYFDFWGQGVMVTVSS
B3: rG055: rat anti-human CDH6 monoclonal antibody produced by hybridoma rG055; variable regions SEQ ID NO: 20 and 25 (antibody, listed as Rattus norvegicus, V domains shown)
VL: DVQMTHSPSYLAASPGESVSISCKTSKNISNYLVWYQQKPGEAYKLLIYSGSTLQSGTPSRFSGSGSGTDFTLTIRSLEPEDFGLYFCQQYYEKPFTFGSGTKLEIKRA
VH: EVQLQESGPGLVRPSQSLSLSCSVTDYSITSNYWGWIRRFPGNKMEWMGYITYSGYTSYNPSLQSRISITRDTSKNQFFLQLNSVTAEDTATYYCARSINHGGYSYVVDAWGPGASVTVSS
B4: rG061: rat anti-human CDH6 monoclonal antibody produced by hybridoma rG061; variable regions SEQ ID NO: 40 and 45 (antibody, listed as Rattus norvegicus, V domains shown)
VL: B3 VL with H6Q, T25A, S26T, N28S, V34A, L46V, F87S, F96L
VH: EVQLQESGPGLVKPSQSLSLTCSVTGYSITTYYWGWIRKFPGNKMEWMGYISYSGRTSYNPSLKSRMSITRDASKNQFFLQLNSVTTDDTATYYCARSPINHGGYWYFDFWGPGTMVTVSS

Biological target: T1, human CDH6 (full-length and EC domain deletion mutants)
Test: Epitope analysis of rat anti-CDH6 antibody by flow cytometry using domain deletion mutants
Format: binding
Conditions: flow cytometry; transfected 293α cells; antibody 20 nM
From the text: (§1) The full-length extracellular region of human CDH6 has five extracellular domains, EC1 (SEQ ID NO: 2), EC2 (SEQ ID NO: 3), EC3 (SEQ ID NO: 4), EC4 (SEQ ID NO: 5), and EC5 (SEQ ID NO: 6). A gene to be expressed such that each one of the five EC domains could be deleted from full-length human CDH6 was synthesized by GeneArt, and incorporated into p3×FLAG-CMV-9 vectors for mammalian expression (Sigma-Aldrich Co. LLC) according to a method known to a person skilled in the art in order to produce an expression vector for each domain deletion mutant lacking any one of EC1 to EC5.
(§2) The epitopes to which the rat anti-human CDH6 antibodies bound were identified by flow cytometry analysis using a 293α cell line transfected with each EC domain deletion vector. Using Lipofectamine 2000 (Thermo Fisher Scientific Inc.), each domain deletion mutant expression vector produced in Reference Example 2)-2-1, or pcDNA3.1-hCDH6 for the expression of full-length human CDH6 was transiently introduced into a 293α cell line, which was a cell line derived from HEK293 cells by stable transfection with integrin αv and integrin […] expression vectors. The cells were cultured overnight under conditions of 37° C. and 5% CO2, and thereafter, a cell suspension was prepared. The suspension of the transfected 293α cells was centrifuged, and a supernatant was then removed. Thereafter, the cells were suspended by the addition of each of the 4 rat anti-CDH6 monoclonal antibodies (clone Nos: rG019, rG055, rG056 and rG061), which had been prepared in Reference Example 1)-7, or rat IgG control (R&D Systems, Inc.) (final concentration: 20 nM). The cells were left standing at 4° C. for 1 hour. The cells were washed twice with PBS supplemented with 5% FBS, and then suspended by the addition of Anti-Rat IgG (whole molecule)-FITC antibody produced in rabbit (Sigma-Aldrich Co. LLC) that had been 50-fold diluted with PBS supplemented with 5% FBS. The cells were left standing at 4° C. for 1 hour. The cells were washed twice with PBS supplemented with 5% FBS, followed by detection using a flow cytometer (Canto II; BD Biosciences). The data was analyzed using FlowJo (Tree Star, Inc.). In the histograms of FIGS. 2-1 to 2-6, the abscissa depicts FITC fluorescence intensity indicating the amount of the antibody bound, and the ordinate depicts cell count. […] Fluorescence intensity is enhanced when the antibody binds to full-length hCDH6 or each EC domain deletion mutant on the surface of cells. The rat IgG control binds to none of the transfected cells.

| binding to EC4 deletion mutant | Molecule |
| --- | --- |
| bind | B1 |
| bind | B2 |
| bind | B3 |
| bind | B4 |

Biological target: T2, human CDH6 (full-length and EC domain deletion mutants)
Test: as above
Format: binding
Conditions: flow cytometry; transfected 293α cells; antibody 20 nM
From the text: as §1, §2

| binding to EC2 deletion mutant | Molecule |
| --- | --- |
| bind | B1 |
| bind | B2 |
| bind | B3 |
| bind | B4 |
